Experiment: soluble on expression in E. coli; label from the status in PepcDB or PDB records

Row | Sequence | soluble on expression in E. coli
1 | SLKKIVESTTFPRTKQSITEDLKALGLKKGMTVLVHSSLSSIGWVNGGAVAVIQALIDVVTEEGTIVMPSQSVELSDPKEWGNPPVPEEWWDIIRESMPAYNSNYTPTTRGMGQIVELFRSYPEVKRSNHPNYSFVAWGKHKNKILNQHPLEFGLGEQSPLGKLYIRESYVLLLGADFDSSTCFHLAEYRIPYQKIINRGAPIIVEGKRVWKEYKELEFREELFQEVGQAFEAEHNMKVGKVGSANCRLFSLTEAVDFAEKWFINNDSKNIKK | soluble
2 | MRGSHHHHHHGSSEPLILDAPNADACIIWLHGLGADRTDFKPVAEALQMVLPSTRFILPQAPSQAVTVNGGWVMPSWYDILAFSPARAIDEDQLNASADQVIALIDEQRAKGIAAERIILAGFSQGGAVVLHTAFRRYAQPLGGVLALSTYAPTFDDLALDERHKRIPVLHLHGSQDDVVDPALGRAAHDALQAQGVEVGWHDYPMGHEVSLEEIHDIGAWLRKRL | soluble
3 | MGSDKIHHHHHHMARKPRIHYPGALYHVILRGNARQDIFHDPEDRYRFYLFLQEGAERFGHRILAFCLMTNHVHLAVQVGEVPLSRFMQNITFRYTRWQNWRMGKTGHLFQGRYKSFLVDGDAYLQELVAYIHLNPVRAGMTTKLGSYTWSSHRAYLGKEIIPWLNTETVLATYSSDTSTARKQYATFISDRVKEGHREEFHGKGSSDSRVIGDDHFVEAILERADRLPLRRPGLDMVVEVIKRLYRLDEEELASPGQKRWAAEARGVAAWAVQEFSSATLTDLAKRFGRDVSSMSAAVRRLEQRRKIDQGIAERLERVGRELEGAIFQA | not soluble
4 | MGSDKIHHHHHHMFKTIHPLSVARHGKLRLKPVSDYRFAAQEAVIGLVGAEIHKAIHAFPIAFLRSAHAGGTSCQMVGLLSVTPGQNLLVSPDGRWLGDYIPAALRAYPFVLARSQEDADTRLPCLDEDCGLLSESEGQPLFSEDGQLSDFSRRIIDFLTATERNREATQKGVDVLEKAQLFTPWSLQVVIQKQTKAIEGFHVIDETKLNQLDDETWLALRRAGVLPLVYGHLLSLNRTDLLGQLSGLQAQLAQQLTARPKLDDMLDFGDESILQF | not soluble
5 | MGSDKIHHHHHHMGQTTFSRQKDGQPDTAYHDSETTYHYSETTYNYAYLDESTKGMIRRAILKAIAIPGHQVPFGSREMPMPYGWGTGGIQITASIIGPNDTLKVIDQGSDDTTNAVSIRAFFRKVTNVPTTEKTSEATLIQTRHRIPETPLKEDQILVFQVPIPEPLRFIEPRETETCKMHALEEYGVMQVKLYEDIARFGHIATTYAYPVKVNHRYVMDPSPIPKFDNPKMDMMPALQLFGAGREKRVYAVPPYTVVESLDFDDHPFTIQQWDKPCELCGARDSFLDEVVMDDDGTRMFVCSDTDYCQLRQSQGEKTS | not soluble
6 | MGEETRRQERRIDAEKRAVSSLLFRIIRSHSTPVANSTASDEATAAAAAGQQNFASRKRRETKKREKSSSSCVSHCFLVMGHGKAFVF | not soluble
7 | MSLQAPMALVPVRTIYPGEAISPEQVKSVEVTNPNISAGYASDISEVEGMISKQTLLPGRTIPIAALREPSLVVRGTSVKLVFHIGNMTLMASGTPMSDGSLGEVVRVRNIDSGVMVSGTVMKDGTIQVMAKEGHHHHHH | soluble
8 | MKKATMLTYLEEQLEKHLGDYEVGLDWDRKNHTIEVIVRLYAENNEQVAIDDVDGTLSEEEFIEFEDGLLFYNPQKSVVDDEEYLVTIPYEGKKGLRKAVLDGFIHYLKVVLDEGQSDLLDFLSDETAEVFELHWEPADFEAMIKKVAETEKEQWIAYPSY | not soluble
9 | MKTRTQQIEELQKEWTQPRWEGITRPYSAEDVVKLRGSVNPECTLAQLGAAKMWRLLHGESKKGYINSLGALTGGQALQQAKAGIEAVYLSGWQVAADANLAASMYPDQSLYPANSVPAVVERINNTFRRADQIQWSAGIEPGDPRYVDYFLPIVADAEAGFGGVLNAFELMKAMIEAGAAAVHFEDQLASVKKCGHMGGKVLVPTQEAIQKLVAARLCADVTGVPTLLVARTDADAADLITSDCDPYDSEFITGERTSEGFFRTHAGIEQAISRGLAYAPYADLVWCETSTPDLELARRFAQAIHAKYPGKLLAYNCSPSFNWQKNLDDKTIASFQQQLSDMGYKFQFITLAGIHSMWFNMFDLANAYAQGEGMKHYVEKVQQPEFAAAKDGYTFVSHQQEVGTGYFDKVTTIIQGGTSSVTALTGSTEESQF | soluble
10 | GRMRIQEQSGARDKMVIGAGGLEDYIDKAMDDVAPNLKALVGAKLGARLISLAGGLKELAMLPSSTIQVLGAEKALFRHLRTGAKPPKHGVIYQYPAINRSPWWQRGKIARALAGKLAIAARVDYFSGEYIAEELKKELEARIKEIKEKYPRPPKRRKEERKGRKPWKE | soluble
11 | MGSSHHHHHHSSGLVPRGSHMLKQKELIANVKNLTESDERITACMMYGSFTKGEGDQYSDIEFYIFLKHSITSNFDSSNWLFDVAPYLMLYKNEYGTEVVIFDNLIRGEFHFLSEKDMNIIPSFKDSGYIPDTKAMLIYDETGQLENYLSEISGARPNRLTEENANFLLCNFSNLWLMGINVLKRGEYARSLELLSQLQKNTLQLIRMAEKNADNWLNMSKNLEKEISLENYKKFAKTTARLDKVELFEAYKNSLLLVMDLQSHLIEQYNLKVTHDILERLLNYISE | soluble
12 | MAPQMEKVSEELILPSSPTPQSLKCYKISHLDQLLLTCHIPFILFYPNPLDSNLDPAQTSQHLKQSLSKVLTHFYPLAGRINVNSSVDCNDSGVPFVEARVQAQLSQAIQNVVELEKLDQYLPSAAYPGGKIEVNEDVPLAVKISFFECGGTAIGVNLSHKIADVLSLATFLNAWTATCRGETEIVLPNFDLAARHFPPVDNTPSPELVPDENVVMKRFVFDKEKIGALRAQASSASEEKNFSRVQLVVAYIWKHVIDVTRAKYGAKNKFVVVQAVNLRSRMNPPLPHYAMGNIATLLFAAVDAEWDKDFPDLIGPLRTSLEKTEDDHNHELLKGMTCLYELEPQELLSFTSWCRLGFYDLDFGWGKPLSACTTTFPKRNAALLMDTRSGDGVEAWLPMAEDEMAMLPVELLSLVDSDFSK | soluble
13 | MVARISVGKNLYGALAYNQNKVDEGGAKVLSAHLLRYPEDGRFRPDESVRQFLEWMPNHYRTEKPVIHISLNPHPDDVLTDGQLAEIGREYMQRLGYGNQPYLVFKHEDIGRHHIHIVSLRVDSEGRKVSDKFEYRRSKEITELLEQKYGLHPAEGRKKGEEWQLKPVDVAKGDIKRQIACTLKPLLELYSFRTMGELRALLSLYNIGVEEVKGEIGGRTYHGILYTALDGNGETAATPIKSSRLGRTAGAQQLDRKMRESAARIKSAPCRERLRPLVADALRQSVDERDFRDRLAKEQIDLVLRRNGTDRIYGVTFIDHRSRTVLNGSRLGKEFSANMLNGHFQEQPPNSLSPLLPPVPSAVASGNGEKIPGGLLSDMEPELNYVPRYPKLLKPDKKKRRRRYGRQDLEHHHHHH | soluble
14 | SDLFTDGDIFQDIVDAACKRRVPVYIILDEAGVKYFLEMCQDLQLTDFRIRNIRVRSVTGVGFYMPMGRIKGTLSSRFLMVDGDKVATGSYRFTWSSSHVDRNLLLLLTGQNVEPFDTEFRELYAISEEVDLYRQLSLAGRVGLHYSSTVARKLINPKYALVSGCRHPPGEMMRWAARQQWEAGGNPEGQEEGASGGESAWRLESFLKDLVTVEQVLPPVEPIPLGELSQKDGRMVSHMHRDLKPKSREAPSRNGMGEAARGEAAPARRFSSRLFSRRAKRPAAPNGMASSVSTETSEVEFLTGKRPNENSSADISGKTSPSSAKPSNCVIS | soluble
15 | MGSDKIHHHHHHMLPTLDGLPFHIAKAQGIYDSLGLDLTILSFNSAYDRDAAFQFKSMDGMITDYPSAVTLQAIHHTDLGIILKHDGYFCFIVSKESGINQLQELKEKNIAVSHNTIIEYATGQLLNKAGISQAEVNKPEIAQLPLRLQMLQYDQIDASFLPDPAASIAMNARHRSLISTQELGIDFTVTAFSREAINEKRREIELLITGYNLGIDYIKMHPQKEWKQVLIEIGVPENLTGLIALPVYRKAERPSADALDKAVTWLKTNNRIPQTYSGYKSLIDTTFIKTNSTTIK | not soluble
16 | MQGSVTEFLKPRLVDIEQISTTHAKVTLEPLERGFGHTLGNALRRILLSSMPGCAVTEVEIEGVLHEYSTKEGVQEDILEILLNLKGLAVRVAEGKDEVFITLNKSGSGPVVAGDITHDGDVEIVNPEHVICHLTSDNAAIAMRIKVERGRGYVPASARIHTEEDERPIGRLLVDATFSPVDKIAYSVEAARVEQRTDLDKLVIDMETNGTLEPEEAIRRAATILAEQLDAFVDLRDVRVPEEKEEKPEFDPILLRPVDDLELTVRSANCLKAEAIHYIGDLVQRTEVELLKTPNLGKKSLTEIKDVLASRGLSLGMRLENWPPASIAED | soluble
17 | MSLDLRARVREELERLKREGLYISPKVLEAPQEPVTRVEGREVVNLASNNYLGFANHPYLKEKARQYLEKWGAGSGAVRTIAGTFTYHVELEEALARFKGTESALVLQSGFTANQGVLGALLKEGDVVFSDELNHASIIDGLRLTKATRLVFRHADVAHLEELLKAHDTDGLKLIVTDGVFSMDGDIAPLDKIVPLAKKYKAVVYVDDAHGSGVLGEKGKGTVHHFGFHQDPDVVQVATLSKAWAGIGGYAAGARELKDLLINKARPFLFSTSHPPAVVGALLGALELIEKEPERVERLWENTRYFKRELARLGYDTLGSQTPITPVLFGEAPLAFEASRLLLEEGVFAVGIGFPTVPRGKARIRNIVTAAHTKEMLDKALEAYEKVGKRLGIIR | soluble
18 | MNMKATALTATTVAIASLLPSMGETNVQKANAEQLSNIKTGYVKVDQVALHTEDNVKSTSIDTIRFNTKVNIIETTNGWYKVSVHNKVGYVQKDAILLKNKLQSNDQYIVNANALNVRSEPNLESSILDVLPNGKFITVQEDQGEWYKISHNGQTGYVQKAFISNGSQPLVKGITVQNNTKYTVATPNLNVRSTASTSSALLGSLQNGTQVQVVETVGTWYKIRFGTGYGYVAKHYVVQNQPQAKTDQPSSIPAAFKFPAQGRISSTFDIRWEQMHYGIDIAAPGNVSIQAAAAGKVVKSYYSASYGNVVFIAHQINGKLYTTVYAHMKDRTVQAGDQVQTGQLIGHMGNTGHSYGQHLHCELHNGEWNFEKTDAVNPLPYLVRLEHHHHHH | soluble
19 | MKEKKKEIEKLLARPDLTPEQMKNYGMEYAKIEEIENITNRIKETQEFIELLREEGENELEIEKYEKELDQLYQELLFLLSPEASDKAIVEIRPGTGGEEAALFARDLFRMYTRYAERKGWNLEVAEIHETDLGGIREVVFFVKGKNAYGILKYESGVHRVQRVPVTESGGRIHTSTATVAVLPEIEEKDIEIRPEDLKIETFRASGHGGQYVNKTESAVRITHLPTGIVVSCQNERSQYQNKQTALRILRARLYQLQKEQKEREISQKRKSQIGTGERSEKIRTYNFPQNRVTDHRINYTSYRLQEILDGDLDEIISKLIEHDIENNLEEVLGIGASVEEK | soluble
20 | MAHHHHHHMASSSDADGKEVGSSGEGNRATGGKWRRPSLAQQRARRAQLPPAFDVVHWNDEDISRGHLLRVLHRDTFVVLDYHRQARMLTEEGNKAERVVSVMLPAVYTARFLAVLEGRSEKVEVHSRYTNATFTPNPAAPYTFTLKCTSTRPAQQKQQVAGEEGDETFEWTVEFDVAESLMLQRFLTQALHYNTGFARTSV | soluble
